These results are taken from paper PMC10638775, “Development of synthetic modulator enabling long-term propagation and neurogenesis of human embryonic stem cell-derived neural progenitor cells”.

The target in this data set is FGFR1 extracellular domain (human, UniProt P11362 22-376). As to the kind of experiment: SPR; 1:1 model; ka 2.20E10 1/Ms, kd 54.9 1/s; SPR: Biacore T200, CM5 amine coupling, HBS running buffer (pH, salt, temperature not stated); flow cytometry: PBS, 1% BSA, 0.1% sodium azide, room temperature. The settings on record: protein: commercial; stem-loop (Mfold). On the technique in general: SPR reads the build-up and loss of mass on a sensor chip optically.
Chain of FGFR1 extracellular domain (P11362 22-376): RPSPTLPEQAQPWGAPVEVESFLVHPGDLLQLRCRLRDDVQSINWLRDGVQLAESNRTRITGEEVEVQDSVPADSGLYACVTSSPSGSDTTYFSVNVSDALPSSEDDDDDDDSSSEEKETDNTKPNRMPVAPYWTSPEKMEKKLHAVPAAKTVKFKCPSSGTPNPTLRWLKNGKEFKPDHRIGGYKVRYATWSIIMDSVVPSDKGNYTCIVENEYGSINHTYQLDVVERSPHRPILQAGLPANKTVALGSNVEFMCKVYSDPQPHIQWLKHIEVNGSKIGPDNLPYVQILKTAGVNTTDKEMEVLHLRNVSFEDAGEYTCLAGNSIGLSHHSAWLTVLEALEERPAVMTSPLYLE

B1: FGFR-binder (structured_DNA)
DNA: GCCGCGTCTTTATGGCTGGGGATGGTGTGGGTTGCGGC
With B1, the Kd (in general, the free concentration of one partner at which half of the binding sites on the other are occupied at equilibrium, for simple one-to-one binding) stood at 2.5 nM.
